Reference: US20210139598A1 (ROCKEFELLER UNIVERSITY, published 2021)

Legend:
[1] = biological target: T1, human FcγRI, soluble ectodomain (human, UniProt P12314 16-292); assay: SPR (Biacore T100), 2141 Fc variant and soluble FcγR ectodomain
T1 construct: extracellular domain; Recombinant; also called hFcγRI; huFcγRI
Procedure: (§1) All experiments were performed with a Biacore T100 surface plasmon resonance (SPR) system (Biacore, GE Healthcare), as previously described (Bournazos, et al., 2014, Cell 158, 1243-1253). Briefly, experiments were performed at 25_C in HBS-EP+ buffer (10 mM HEPES, pH 7.4; 150 mM NaCl; 3.4 mM EDTA; 0.005% (v/v) surfactant P20). […] Background binding to blank immobilized flow cells was subtracted and affinity constants were calculated using BIAcore T100 evaluation software (GE Healthcare) using the 1:1 Langmuir binding model.

[2] = biological target: T2, human FcγRIIB, soluble ectodomain (human, UniProt P31994 43-217); assay: as above
T2 construct: extracellular domain; Recombinant; also called hFcγRIIB; huFcγRIIB
T2 sequence (looked up): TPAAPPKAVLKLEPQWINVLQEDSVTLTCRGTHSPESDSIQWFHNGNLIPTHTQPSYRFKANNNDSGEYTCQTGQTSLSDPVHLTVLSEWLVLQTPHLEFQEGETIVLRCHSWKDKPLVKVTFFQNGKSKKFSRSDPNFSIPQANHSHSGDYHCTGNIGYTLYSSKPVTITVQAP
Procedure: as §1

[3] = biological target: T3, human FcγRIIA R131 allele, soluble ectodomain (human, UniProt P12318 34-217); assay: as above
T3 construct: extracellular domain; also called hFcγRIIA^R131; hFcγRIIA
T3 sequence (looked up): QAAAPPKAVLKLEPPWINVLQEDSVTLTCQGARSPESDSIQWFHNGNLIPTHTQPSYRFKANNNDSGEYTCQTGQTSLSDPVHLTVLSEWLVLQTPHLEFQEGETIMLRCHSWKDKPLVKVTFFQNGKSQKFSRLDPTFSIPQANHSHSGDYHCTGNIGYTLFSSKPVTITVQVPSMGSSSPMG
Procedure: as §1

[4] = biological target: T4, human FcγRIIIA F158 allele, soluble ectodomain (human, UniProt P08637 17-208); assay: as above
T4 construct: extracellular domain; also called hFcγRIIIA^F158; huFcγRIIIA
T4 sequence (P08637 17-208): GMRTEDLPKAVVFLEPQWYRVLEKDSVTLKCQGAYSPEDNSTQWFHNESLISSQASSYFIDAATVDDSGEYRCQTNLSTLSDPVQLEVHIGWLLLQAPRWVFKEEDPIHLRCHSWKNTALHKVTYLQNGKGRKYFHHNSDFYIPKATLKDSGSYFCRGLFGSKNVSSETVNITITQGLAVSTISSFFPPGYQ
Procedure: as §1

[5] = biological target: T5, human CD40, soluble ectodomain / recombinant extracellular domain (human, UniProt P25942 21-193); assay: SPR (Biacore T100), IgG immobilised, soluble CD40 injected
T5 construct: also called hCD40; huCD40
T5 sequence (P25942 21-193): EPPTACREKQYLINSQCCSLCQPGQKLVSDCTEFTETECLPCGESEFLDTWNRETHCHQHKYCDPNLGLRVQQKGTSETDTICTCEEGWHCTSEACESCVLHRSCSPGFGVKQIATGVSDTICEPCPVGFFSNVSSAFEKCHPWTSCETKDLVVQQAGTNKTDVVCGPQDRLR
Procedure: as §1

[6] = biological target: T3, human FcγRIIA R131 allele, soluble …; assay: ratio of the binding affinities to hFcγRIIA R131 and to hFcγRIIB, from SPR
Procedure: as §1

[7] = biological target: T2, human FcγRIIB, soluble ectodomain; assay: fold change in hFcγRIIB binding affinity against wild type IgG1, from SPR
Procedure: as §1

[8] = biological target: T3, human FcγRIIA R131 allele, soluble …; assay: graded summary table of FcγR binding affinity profiles (SPR, see Table 4); the sheet prints no allele, R131 taken from Table 4
Procedure: as §1

T1 sequence (P12314 16-292): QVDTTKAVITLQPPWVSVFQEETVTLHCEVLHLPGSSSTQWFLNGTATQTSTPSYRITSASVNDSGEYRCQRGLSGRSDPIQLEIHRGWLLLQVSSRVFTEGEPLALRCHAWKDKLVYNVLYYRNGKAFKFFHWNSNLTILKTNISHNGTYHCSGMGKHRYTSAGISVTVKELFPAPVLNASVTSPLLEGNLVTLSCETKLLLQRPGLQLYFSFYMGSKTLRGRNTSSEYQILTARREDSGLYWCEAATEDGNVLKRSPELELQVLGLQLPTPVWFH

Binder | Kd [5] [nM] | koff [5] [s⁻¹] | kon [5] [M⁻¹ s⁻¹] | other results
2141-IgG1 (anti-human CD40 Ab clone 21.4.1, wild type human IgG1) (antibody, Made in HEK293T cells; also called IgG1 wild type) heavy: not shown light: DIQMTQSPSSVSASVGDRVTITCRASQGIYSWLAWYQQKPGKAPNLLIYTASTLQSGVPSRFSGSGSGTDFTLTISSLQPEDFATYYCQQANIFPLTFGGGTKVEIKRTVAAPSVFIFPPSDEQLKSGTASVVCLLNNFYPREAKVQWKVDNALQSGNSQESVTEQDSKDSTYSLSSTLTLSKADYEKHKVYACEVTHQGLSSPVTKSFNRGEC | 19.9 | 0.00119 | 59700 | Fold (KD(IgG1)/KD(Fc variant)) [1]: 1 fold; Fold (KD(IgG1)/KD(Fc variant)) [2]: 1 fold; Fold (KD(IgG1)/KD(Fc variant)) [3]: 1 fold; Fold (KD(IgG1)/KD(Fc variant)) [4]: 1 fold; IIA/IIB [6]: 2.7; FcγRIIB -fold [7]: 1 fold
2141-IgG1 G237D/P238D/H268D/P271G/A330R (V11) (antibody, also called 2141-V11) heavy: not shown light: DIQMTQSPSSVSASVGDRVTITCRASQGIYSWLAWYQQKPGKAPNLLIYTASTLQSGVPSRFSGSGSGTDFTLTISSLQPEDFATYYCQQANIFPLTFGGGTKVEIKRTVAAPSVFIFPPSDEQLKSGTASVVCLLNNFYPREAKVQWKVDNALQSGNSQESVTEQDSKDSTYSLSSTLTLSKADYEKHKVYACEVTHQGLSSPVTKSFNRGEC | 27.4 | 0.00112 | 41000 | –
2141-IgG1 G237D/P238D/P271G/A330R (V9) (antibody) heavy: not shown light: DIQMTQSPSSVSASVGDRVTITCRASQGIYSWLAWYQQKPGKAPNLLIYTASTLQSGVPSRFSGSGSGTDFTLTISSLQPEDFATYYCQQANIFPLTFGGGTKVEIKRTVAAPSVFIFPPSDEQLKSGTASVVCLLNNFYPREAKVQWKVDNALQSGNSQESVTEQDSKDSTYSLSSTLTLSKADYEKHKVYACEVTHQGLSSPVTKSFNRGEC | 26.8 | 0.00113 | 42200 | Kd [1]: 578 nM
2141-IgG1 N297A (antibody, also called N297A Fc-null) heavy: not shown light: DIQMTQSPSSVSASVGDRVTITCRASQGIYSWLAWYQQKPGKAPNLLIYTASTLQSGVPSRFSGSGSGTDFTLTISSLQPEDFATYYCQQANIFPLTFGGGTKVEIKRTVAAPSVFIFPPSDEQLKSGTASVVCLLNNFYPREAKVQWKVDNALQSGNSQESVTEQDSKDSTYSLSSTLTLSKADYEKHKVYACEVTHQGLSSPVTKSFNRGEC | 22.2 | 0.00116 | 52300 | binding result [8]: no binding
2141-IgG1 S267E (antibody, also called SE) heavy: not shown light: DIQMTQSPSSVSASVGDRVTITCRASQGIYSWLAWYQQKPGKAPNLLIYTASTLQSGVPSRFSGSGSGTDFTLTISSLQPEDFATYYCQQANIFPLTFGGGTKVEIKRTVAAPSVFIFPPSDEQLKSGTASVVCLLNNFYPREAKVQWKVDNALQSGNSQESVTEQDSKDSTYSLSSTLTLSKADYEKHKVYACEVTHQGLSSPVTKSFNRGEC | 23.1 | 0.00115 | 50000 | –
2141-IgG1 S267E/L328F (antibody, also called SELF) heavy: not shown light: DIQMTQSPSSVSASVGDRVTITCRASQGIYSWLAWYQQKPGKAPNLLIYTASTLQSGVPSRFSGSGSGTDFTLTISSLQPEDFATYYCQQANIFPLTFGGGTKVEIKRTVAAPSVFIFPPSDEQLKSGTASVVCLLNNFYPREAKVQWKVDNALQSGNSQESVTEQDSKDSTYSLSSTLTLSKADYEKHKVYACEVTHQGLSSPVTKSFNRGEC | 27.4 | 0.00116 | 42300 | Kd [3]: 17.7 nM
2141-IgG2 (CP-870,893, human IgG2) (antibody) heavy: not shown light: DIQMTQSPSSVSASVGDRVTITCRASQGIYSWLAWYQQKPGKAPNLLIYTASTLQSGVPSRFSGSGSGTDFTLTISSLQPEDFATYYCQQANIFPLTFGGGTKVEIKRTVAAPSVFIFPPSDEQLKSGTASVVCLLNNFYPREAKVQWKVDNALQSGNSQESVTEQDSKDSTYSLSSTLTLSKADYEKHKVYACEVTHQGLSSPVTKSFNRGEC | 31 | 0.00108 | 34900 | Kd [3]: < 10000 nM; Kd [4]: < 10000 nM
2141-IgG2 C127S (antibody, also called IgG2-B) heavy: not shown light: DIQMTQSPSSVSASVGDRVTITCRASQGIYSWLAWYQQKPGKAPNLLIYTASTLQSGVPSRFSGSGSGTDFTLTISSLQPEDFATYYCQQANIFPLTFGGGTKVEIKRTVAAPSVFIFPPSDEQLKSGTASVVCLLNNFYPREAKVQWKVDNALQSGNSQESVTEQDSKDSTYSLSSTLTLSKADYEKHKVYACEVTHQGLSSPVTKSFNRGEC | 30.9 | 0.0011 | 35500 | –
2141-IgG2 C232S (antibody, also called IgG2-C232S (IgG2A); IgG2-A) heavy: not shown light: DIQMTQSPSSVSASVGDRVTITCRASQGIYSWLAWYQQKPGKAPNLLIYTASTLQSGVPSRFSGSGSGTDFTLTISSLQPEDFATYYCQQANIFPLTFGGGTKVEIKRTVAAPSVFIFPPSDEQLKSGTASVVCLLNNFYPREAKVQWKVDNALQSGNSQESVTEQDSKDSTYSLSSTLTLSKADYEKHKVYACEVTHQGLSSPVTKSFNRGEC | 30.9 | 0.00109 | 35200 | –
